T1: NKG2D on NKL cells (human, UniProt P26718 1-216)
T1 sequence (looked up): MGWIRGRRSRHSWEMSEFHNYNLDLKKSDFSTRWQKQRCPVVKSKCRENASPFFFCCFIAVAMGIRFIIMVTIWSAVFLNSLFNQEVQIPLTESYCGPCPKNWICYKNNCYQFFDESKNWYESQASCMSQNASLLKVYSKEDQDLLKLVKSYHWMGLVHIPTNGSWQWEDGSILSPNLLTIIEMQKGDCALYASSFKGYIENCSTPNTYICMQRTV

T2: human NKG2D-Fc (human, UniProt P26718 78-216)
T2 construct: also called human NKG2D-Fc reagent; not shown: Fc part, not described
T2 sequence (looked up): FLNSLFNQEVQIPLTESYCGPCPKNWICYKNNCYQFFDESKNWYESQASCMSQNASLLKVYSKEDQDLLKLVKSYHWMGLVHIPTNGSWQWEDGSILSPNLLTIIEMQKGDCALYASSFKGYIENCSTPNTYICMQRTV

T3: mouse NKG2D-Fc (mouse, UniProt O54709 94-232)
T3 construct: also called murine NKG2D-Fc; murine NKG2D; not shown: Fc part, not described
T3 sequence (looked up): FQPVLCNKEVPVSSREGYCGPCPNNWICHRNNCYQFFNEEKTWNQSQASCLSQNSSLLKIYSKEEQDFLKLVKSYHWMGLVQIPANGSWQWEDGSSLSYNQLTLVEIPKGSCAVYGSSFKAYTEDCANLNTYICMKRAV

T4: biotinylated human NKG2D (human, UniProt P26718 78-216)
T4 construct: also called surface coated biotinylated human NKG2D; recombinant biotinylated NKG2D
T4 sequence (looked up): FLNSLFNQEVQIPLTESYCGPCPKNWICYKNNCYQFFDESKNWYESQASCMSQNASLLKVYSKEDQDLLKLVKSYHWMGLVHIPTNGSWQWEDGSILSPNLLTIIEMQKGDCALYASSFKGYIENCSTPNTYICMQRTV


What was measured:
NKG2D on NKL cells = target: T1, NKG2D on NKL cells; assay: cell-based or functional assay
human NKG2D-Fc [1] = target: T2, human NKG2D-Fc; assay: competition ELISA: inhibition of 2 nM human NKG2D-Fc binding to plate-coated WT sMICA
mouse NKG2D-Fc = target: T3, mouse NKG2D-Fc; assay: competition ELISA: inhibition of mouse NKG2D-Fc binding to plate-coated MICA
biotinylated human NKG2D [2] = target: T4, biotinylated human NKG2D; assay: biolayer interferometry (Octet), surface coated biotinylated human NKG2D, 100 nM protein
biotinylated human NKG2D [3] = target: T4, biotinylated human NKG2D; assay: biolayer interferometry (Octet), surface-coated biotinylated human NKG2D
biotinylated human NKG2D [4] = target: T4, biotinylated human NKG2D; assay: biolayer interferometry (Octet), surface-coated biotinylated human NKG2D, titration 1-100 nM
human NKG2D-Fc [5] = target: T2, human NKG2D-Fc; assay: competition ELISA: inhibition of human NKG2D-Fc binding to plate-coated WT sMICA

Row | Binder | IC50 (human NKG2D-Fc [1]) [nM] | fold better binding to NKG2D than WT NKG2DL (human NKG2D-Fc [1]) [fold] | binding result (mouse NKG2D-Fc) | fold affinity increase relative to WT al -a2 (biotinylated human NKG2D [2]) [fold] | fold reduction in the off-rate relative to WT (biotinylated human NKG2D [2]) [fold] | killing of FGFR3-expressing P815 cells by NKL cells, calcein-release assay, fold against WT at 0.78 nM (NKG2D on NKL cells) [fold] | further results
1 | al-a2 variant 16 (ligand) EPHSLRYNLTVLSWDGSVQSGFLTEVHLDGQPFLRCDRQKCRAKPQGQWAEDVLGNKTWDRETRDLTGWGKDLRMTLAHIKDQKEGLHSLQEIRVCEIHEDNSTRSSQHFYYDGELFLSQNLETLEWTMPQSSRAQTLAMNVRNFLKEDAMETDTHYHAMRADCLQELRRYLKSGVVLRRTVPPMVQVTRSEASGGSGDRVTITCRASQDVSTAVAWYQQKPGKAPKLLIYSASFLYSGVPSRFSGSGSGTDFTLTISSLQPEDFATYYCQQSYTTPPTFGQGTKVEIKGGSSRSSSSGGGGSGGGGEVQLVESGGGLVQPGGSLRLSCAASGFTFTSTGISWVRQAPGKGLEWVGRIYPTNGSTNYADSVKGRFTISADTSKNTAYLQMNSLRAEDTAVYYCARTYGIYDLYVDYTEYVMDYWGQGTLVTVSSGGSSRSSSSGGGGSGGGGDIQMTQSPSSLSASGGSGQITVTCRASGFYPWNITLSWRQDGVSLSHDTQQWGDVLPDGQGTYQTWVATRISQGEEQRFTCYMEHSGQHSTHPVPSGKGSHHHHHH | 0.7 | 27 | binds | 30 | 18 | ~15 | 
2 | al-a2 variant 25 (ligand) EPHSLRYNLTVLSWDGSVQSGFLTEVHLDGQPFLRCDRQKCRAKPQGQWAEDVLGNKTWDRETRDLTGWGKDLRMTLAHIKDQKEGLHSLQEIRVCEIHEDNSTRSSQHFYYDGELFLSQNLETLEWTMPQSSRAQTLAMNVRNFLKEDAMETDTHYHAMRADCLSELRRYLKSGVVLRRTVPPMVQVTRSEASGGSGDRVTITCRASQDVSTAVAWYQQKPGKAPKLLIYSASFLYSGVPSRFSGSGSGTDFTLTISSLQPEDFATYYCQQSYTTPPTFGQGTKVEIKGGSSRSSSSGGGGSGGGGEVQLVESGGGLVQPGGSLRLSCAASGFTFTSTGISWVRQAPGKGLEWVGRIYPTNGSTNYADSVKGRFTISADTSKNTAYLQMNSLRAEDTAVYYCARTYGIYDLYVDYTEYVMDYWGQGTLVTVSSGGSSRSSSSGGGGSGGGGDIQMTQSPSSLSASGGSGQITVTCRASGFYPWNITLSWRQDGVSLSHDTQQWGDVLPDGQGTYQTWVATRISQGEEQRFTCYMEHSGQHSTHPVPSGKGSHHHHHH |  |  |  |  |  |  | EC50 for cell killing, fold improvement against variant 16 (NKG2D on NKL cells): ~5 fold; killing of FGFR3-expressing P815 cells by NKL cells, calcein-release assay, fold against variant 16 at 0.2 nM (NKG2D on NKL cells): ~3 fold; fold enhancement in equilibrium binding affinity against variant 16 (biotinylated human NKG2D [3]): 8 fold; Kd (biotinylated human NKG2D [4]): 0.062 nM
3 | al-a2 variant 15 (ligand) EPHSLRYNLTVLSWDGSVQSGFLTEVHLDGQPFLRCDRQKCRAKPQGQWAEDVLGNKTWDRETRDLTGWGKDLRMTLAHIKDQKEGLHSLQEIRVCEIHEDNSTRSSQHFYYDGELFLSQNLETNEWTMPQSSRAQTLAMNVRNFLKEDAMETDTHYHAMRADCLQELRRYLKSGVVLRRTVPPMVQVTRSEASGGSGDRVTITCRASQDVSTAVAWYQQKPGKAPKLLIYSASFLYSGVPSRFSGSGSGTDFTLTISSLQPEDFATYYCQQSYTTPPTFGQGTKVEIKGGSSRSSSSGGGGSGGGGEVQLVESGGGLVQPGGSLRLSCAASGFTFTSTGISWVRQAPGKGLEWVGRIYPTNGSTNYADSVKGRFTISADTSKNTAYLQMNSLRAEDTAVYYCARTYGIYDLYVDYTEYVMDYWGQGTLVTVSSGGSSRSSSSGGGGSGGGGDIQMTQSPSSLSASGGSGQITVTCRASGFYPWNITLSWRQDGVSLSHDTQQWGDVLPDGQGTYQTWVATRISQGEEQRFTCYMEHSGQHSTHPVPSGKGSHHHHHH | 1.7 | 11 | binds |  |  |  | 
4 | al-a2 variant 48 (ligand) EPHSLRYNLTVLSWDGSVQSGFLTEVHLDGQPFLRCDRQKCRAKPQGQWAEDVLGNKTWDRETRDLTGWGKDLRMTLAHIKDQKEGLHSLQEIRVCEIHEDNSTRSSQHFYYDGELFLSQNLETLEWTMPQSSRAQTLAMNVRNFLKEDAMATDTHYIAMRADCLAELRRYLKSGVVLRRTVPPMVQVTRSEASGGSGDRVTITCRASQDVSTAVAWYQQKPGKAPKLLIYSASFLYSGVPSRFSGSGSGTDFTLTISSLQPEDFATYYCQQSYTTPPTFGQGTKVEIKGGSSRSSSSGGGGSGGGGEVQLVESGGGLVQPGGSLRLSCAASGFTFTSTGISWVRQAPGKGLEWVGRIYPTNGSTNYADSVKGRFTISADTSKNTAYLQMNSLRAEDTAVYYCARTYGIYDLYVDYTEYVMDYWGQGTLVTVSSGGSSRSSSSGGGGSGGGGDIQMTQSPSSLSASGGSGQITVTCRASGFYPWNITLSWRQDGVSLSHDTQQWGDVLPDGQGTYQTWVATRISQGEEQRFTCYMEHSGQHSTHPVPSGKGSHHHHHH |  |  |  |  |  |  | fold reduction in NKG2D binding affinity (biotinylated human NKG2D [4]): 250 fold

The next lines start with results.

Row | IC50 (human NKG2D-Fc [1]) [nM] | fold better binding to NKG2D than WT NKG2DL (human NKG2D-Fc [1]) [fold] | binding result (mouse NKG2D-Fc) | fold affinity increase relative to WT al -a2 (biotinylated human NKG2D [2]) [fold] | fold reduction in the off-rate relative to WT (biotinylated human NKG2D [2]) [fold] | Binder | killing of FGFR3-expressing P815 cells by NKL cells, calcein-release assay, fold against WT at 0.78 nM (NKG2D on NKL cells) [fold] | further results
5 | 0.6 | 32 |  | 30 | 18 | al-a2 variant 17 (ligand) EPHSLRYNLTVLSWDGSVQSGFLTEVHLDGQPFLRCDRQKCRAKPQGQWAEDVLGNKTWDRETRDLTLWGKDLRMTLAHIKDQKEGLHSLQEIRVCEIHEDNSTRSSQHFYYDGELFLSQNLETLEWTMPQSSRAQTLAMNVRNFLKEDAMETDTHYHAMRADCLQELRRYLKSGVVLRRTVPPMVQVTRSEASGGSGDRVTITCRASQDVSTAVAWYQQKPGKAPKLLIYSASFLYSGVPSRFSGSGSGTDFTLTISSLQPEDFATYYCQQSYTTPPTFGQGTKVEIKGGSSRSSSSGGGGSGGGGEVQLVESGGGLVQPGGSLRLSCAASGFTFTSTGISWVRQAPGKGLEWVGRIYPTNGSTNYADSVKGRFTISADTSKNTAYLQMNSLRAEDTAVYYCARTYGIYDLYVDYTEYVMDYWGQGTLVTVSSGGSSRSSSSGGGGSGGGGDIQMTQSPSSLSASGGSGQITVTCRASGFYPWNITLSWRQDGVSLSHDTQQWGDVLPDGQGTYQTWVATRISQGEEQRFTCYMEHSGQHSTHPVPSGKGSHHHHHH | ~15 | 
6 | 0.5 | 38 |  | 30 | 18 | al-a2 variant 18 (ligand) EPHSLRYNLTVLSWDGSVQPGFLTEVHLDGQPFLRCDRQKCRAKPQGQWAEDVLGNKTWDRETRDLTLWGKDLRMTLAHIKDQKEGLHSLQEIRVCEIHEDNSTRSSQHFYYDGELFLSQNLETLEWTMPQSSRAQTLAMNVRNFLKEDAMETDTHYHAMRADCLQELRRYLKSGVVLRRTVPPMVQVTRSEASGGSGDRVTITCRASQDVSTAVAWYQQKPGKAPKLLIYSASFLYSGVPSRFSGSGSGTDFTLTISSLQPEDFATYYCQQSYTTPPTFGQGTKVEIKGGSSRSSSSGGGGSGGGGEVQLVESGGGLVQPGGSLRLSCAASGFTFTSTGISWVRQAPGKGLEWVGRIYPTNGSTNYADSVKGRFTISADTSKNTAYLQMNSLRAEDTAVYYCARTYGIYDLYVDYTEYVMDYWGQGTLVTVSSGGSSRSSSSGGGGSGGGGDIQMTQSPSSLSASGGSGQITVTCRASGFYPWNITLSWRQDGVSLSHDTQQWGDVLPDGQGTYQTWVATRISQGEEQRFTCYMEHSGQHSTHPVPSGKGSHHHHHH | ~15 | 
7 |  |  | binds |  |  | WED-MICA (ligand, also called WED- al-cc2 domains; WED soluble MICA) EPHSLRYNLTVLSWDGSVQSGFLTEVHLDGQPFLRCDRQKCRAKPQGQWAEDVLGNKTWDRETRDLTGWGKDLRMTLAHIKDQKEGLHSLQEIRVCEIHEDNSTRSSQHFYYDGELFLSQNLETKEWTMPQSSRAQTLAMNVRNFLKEDAMETDTHYHAMHADCLQELRRYLKSGVVLRRTVPPMVQVTRSEASGGSGDRVTITCRASQDVSTAVAWYQQKPGKAPKLLIYSASFLYSGVPSRFSGSGSGTDFTLTISSLQPEDFATYYCQQSYTTPPTFGQGTKVEIKGGSSRSSSSGGGGSGGGGEVQLVESGGGLVQPGGSLRLSCAASGFTFTSTGISWVRQAPGKGLEWVGRIYPTNGSTNYADSVKGRFTISADTSKNTAYLQMNSLRAEDTAVYYCARTYGIYDLYVDYTEYVMDYWGQGTLVTVSSGGSSRSSSSGGGGSGGGGDIQMTQSPSSLSASGGSGQITVTCRASGFYPWNITLSWRQDGVSLSHDTQQWGDVLPDGQGTYQTWVATRISQGEEQRFTCYMEHSGQHSTHPVPSGKGSHHHHHH |  | binding result (human NKG2D-Fc [5]): binds

Source: patent WO2017222556A2 (dated 2017)
